{"source": "patent US20160010082A1", "about": "(University of California, published 2016)", "binders": {"B1": {"name": "CPX-L2-1 (enhanced CPX, eCPX) displaying SApep at the N-terminus (other)", "chain": "GQSGQAECHPQGPPCIEGRKGGQSGQSGDYNKNQYYGITAGPAYRINDWASIYGVVGVGYGKFQTTEYPTYKHDTSDYGFSYGAGLQFNPMENVALDFSYEQSRIRSVDVGTWILSVGYRFGSKSRRATSTVTGGYAQSDAQGQMNKMGGFNLKYRYEEDNSPLGVIGSFTYTEKSRTAS", "notes": "also called eCPX-nSApep"}, "B2": {"name": "eCPX displaying the VEGF binding peptide at the N-terminus (other)", "chain": "GQSGQVEPNCDIHVMWEWECFERLGGQSGQSGDYNKNQYYGITAGPAYRINDWASIYGVVGVGYGKFQTTEYPTYKHDTSDYGFSYGAGLQFNPMENVALDFSYEQSRIRSVDVGTWILSVGYRFGSKSRRATSTVTGGYAQSDAQGQMNKMGGFNLKYRYEEDNSPLGVIGSFTYTEKSRTAS", "notes": "Disulfide-constrained 19-mer; also called V114"}, "B3": {"name": "eCPX displaying the CRP binding peptide (CRPpep) at the N-terminus (other)", "chain": "GQSGQEWACNDRGFNCQLQRGGQSGQSGDYNKNQYYGITAGPAYRINDWASIYGVVGVGYGKFQTTEYPTYKHDTSDYGFSYGAGLQFNPMENVALDFSYEQSRIRSVDVGTWILSVGYRFGSKSRRATSTVTGGYAQSDAQGQMNKMGGFNLKYRYEEDNSPLGVIGSFTYTEKSRTAS", "notes": "Disulfide-constrained peptide; also called CRP-1"}}, "key": {"[1]": {"molecular_target": "T1, streptavidin-R-phycoerythrin (UniProt P22629 37-163, limits assumed)", "T1 construct": "Bought conjugate; also called SA-PE; fluorescently-conjugated streptavidin probe", "T1 sequence (P22629 37-163 limits assumed)": "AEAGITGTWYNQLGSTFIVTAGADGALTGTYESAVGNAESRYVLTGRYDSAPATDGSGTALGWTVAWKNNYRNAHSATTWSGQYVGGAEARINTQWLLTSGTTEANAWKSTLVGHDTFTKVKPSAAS", "test": "flow cytometry of E. coli displaying the construct, 100 nM SA-PE; 30 minutes of expression", "procedure": "To compare the display level of CPX and eCPX as a function of time of CPX and eCPX, cells were subcultured 1:50 from overnight stocks into 5 mL LB Cm and grown for 2 hours shaking (250 rpm) at 37° C. The cells were then moved to room temperature (22° C.) to equilibrate and induced with 0.04% (w/v) L-arabinose still shaking at 250 rpm. Five μL samples were taken prior to induction, 30, 60, and 90 minutes after induction then added to 50 μL of 100 nM SA-PE in PBS and incubated on ice for 45 minutes. After which the cells were centrifuged (3000 g, 5 min), supernatant removed, and resuspended in 500 μL ice cold PBS. Cells were immediately analyzed with a […] using 488 nm excitation and collected fluorescence data at 576 nm.\nThe cell surface display level of SApep was measured at incremental times after induction of expression for these three scaffolds. […] The level of display was measured before and after 30, 60, and 90 minutes of induction using flow cytometry (FIG. 1). […] After only 30 minutes of expression, the level of display of eCPX-nSApep was 50-fold above background autofluorescence."}, "[2]": {"molecular_target": "T1, streptavidin-R-phycoerythrin", "test": "flow cytometry of E. coli displaying the construct, 100 nM SA-PE; 25 minutes of expression"}, "[3]": {"molecular_target": "T2, biotinylated vascular endothelial growth factor (UniProt P15692-4 27-191, limits assumed)", "T2 construct": "also called VEGF; biotinylated VEGF", "T2 sequence (P15692 other isoform, or with tags, fused parts or gaps limits assumed)": "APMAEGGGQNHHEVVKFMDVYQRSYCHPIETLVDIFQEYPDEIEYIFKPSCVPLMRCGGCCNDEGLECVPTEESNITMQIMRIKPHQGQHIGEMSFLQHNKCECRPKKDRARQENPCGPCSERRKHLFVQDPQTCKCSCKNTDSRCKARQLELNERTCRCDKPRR", "test": "flow cytometry of E. coli displaying the construct, 65 nM biotinylated VEGF then 10 nM SA-PE; reference CPX display"}, "[4]": {"molecular_target": "T3, biotinylated C-reactive protein (UniProt P02741 19-224, biotinylated)", "T3 construct": "also called CRP; biotinylated CRP", "T3 sequence (looked up)": "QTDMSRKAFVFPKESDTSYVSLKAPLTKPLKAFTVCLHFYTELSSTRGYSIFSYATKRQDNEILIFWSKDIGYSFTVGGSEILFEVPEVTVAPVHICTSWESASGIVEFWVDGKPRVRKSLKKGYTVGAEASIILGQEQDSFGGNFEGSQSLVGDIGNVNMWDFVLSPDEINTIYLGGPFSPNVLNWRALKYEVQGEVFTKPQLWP", "test": "flow cytometry of E. coli displaying the construct, 100 nM biotinylated CRP then 10 nM SA-PE; 30 minutes of expression; reference CPX display"}}}
{"binder": "B1", "values": [{"measurement": "level of display (fold above background autofluorescence)", "setting": "[1]", "result": 50, "unit": "fold above background"}, {"measurement": "Relative Display level (fold fluorescence above background)", "setting": "[2]", "result": 33, "unit": "fold above background"}]}
{"binder": "B2", "values": [{"measurement": "fold more efficient display than CPX", "setting": "[3]", "result": "> 3", "unit": "fold"}]}
{"binder": "B3", "values": [{"measurement": "fold higher fluorescence labeling than for CPX", "setting": "[4]", "result": "~50", "unit": "fold"}]}
